Consider 5 molecules from US20240301056A1 (APITBIO, published 2024).

Substitutions are numbered along the chain they refer to. A value given as a limit tells only on which side of the number the result lay.

The labels stand for the following.
B1: Ab612 antibody (antibody, human IgG1, kappa, V domains shown)
VH: EVQLVESGGGVVQPGGSLRLSCAASGFTFSRFGMHWVRQAPGKGLEWVAFISNEGSNKYYADSVKGRFTISRDNSANTLYLQMNSLRAEDTAVYYCARGRAYGSGSLFDPWGQGTLVTVSS
VL: DIQLTQSPSSLSASVGDRVTITCRASRTISSYVNWYRQRPGKAPESLIYAASNLHSGVPSRFSGSGSGTDFTLTISSLQPEDFATYYCQQSIGRGPVTFGQGTKLEIKR
notes: Whole human IgG1, kappa, purified on protein A; also called Anti-L1CAM ("Ab612")
B2: Ab2C2 antibody (antibody, human IgG1, kappa, V domains shown)
VH: B1 VH
VL: B1 VL with S91A, I92G, G93F, R94Y, G95S, V97W
notes: Whole human IgG1, kappa; also called Anti-L1CAM ("Ab2C2"); Ab2C2 mutant
B3: Ab4H5 antibody (antibody, human IgG1, kappa, V domains shown)
VH: B1 VH
VL: B1 VL with S91A, I92G, G93F, R94Y, G95T, V97W
notes: Whole human IgG1, kappa; also called Anti-L1CAM ("Ab4H5"); Ab4H5 mutant
B4: Ab4H6 antibody (antibody, human IgG1, kappa, V domains shown)
VH: B1 VH
VL: B1 VL with I92L, G93H, R94F, G95Y, V97W
notes: Whole human IgG1, kappa; also called Anti-L1CAM ("Ab4H6"); Ab4H6 mutant
B5: Ab5D12 antibody (antibody, human IgG1, kappa, V domains shown)
VH: B1 VH
VL: B1 VL with I92L, G93V, R94W, G95Y, V97W
notes: Whole human IgG1, kappa; also called Anti-L1CAM ("Ab5D12"); Ab5D12 mutant

T1 sequence (P11627 20-1260): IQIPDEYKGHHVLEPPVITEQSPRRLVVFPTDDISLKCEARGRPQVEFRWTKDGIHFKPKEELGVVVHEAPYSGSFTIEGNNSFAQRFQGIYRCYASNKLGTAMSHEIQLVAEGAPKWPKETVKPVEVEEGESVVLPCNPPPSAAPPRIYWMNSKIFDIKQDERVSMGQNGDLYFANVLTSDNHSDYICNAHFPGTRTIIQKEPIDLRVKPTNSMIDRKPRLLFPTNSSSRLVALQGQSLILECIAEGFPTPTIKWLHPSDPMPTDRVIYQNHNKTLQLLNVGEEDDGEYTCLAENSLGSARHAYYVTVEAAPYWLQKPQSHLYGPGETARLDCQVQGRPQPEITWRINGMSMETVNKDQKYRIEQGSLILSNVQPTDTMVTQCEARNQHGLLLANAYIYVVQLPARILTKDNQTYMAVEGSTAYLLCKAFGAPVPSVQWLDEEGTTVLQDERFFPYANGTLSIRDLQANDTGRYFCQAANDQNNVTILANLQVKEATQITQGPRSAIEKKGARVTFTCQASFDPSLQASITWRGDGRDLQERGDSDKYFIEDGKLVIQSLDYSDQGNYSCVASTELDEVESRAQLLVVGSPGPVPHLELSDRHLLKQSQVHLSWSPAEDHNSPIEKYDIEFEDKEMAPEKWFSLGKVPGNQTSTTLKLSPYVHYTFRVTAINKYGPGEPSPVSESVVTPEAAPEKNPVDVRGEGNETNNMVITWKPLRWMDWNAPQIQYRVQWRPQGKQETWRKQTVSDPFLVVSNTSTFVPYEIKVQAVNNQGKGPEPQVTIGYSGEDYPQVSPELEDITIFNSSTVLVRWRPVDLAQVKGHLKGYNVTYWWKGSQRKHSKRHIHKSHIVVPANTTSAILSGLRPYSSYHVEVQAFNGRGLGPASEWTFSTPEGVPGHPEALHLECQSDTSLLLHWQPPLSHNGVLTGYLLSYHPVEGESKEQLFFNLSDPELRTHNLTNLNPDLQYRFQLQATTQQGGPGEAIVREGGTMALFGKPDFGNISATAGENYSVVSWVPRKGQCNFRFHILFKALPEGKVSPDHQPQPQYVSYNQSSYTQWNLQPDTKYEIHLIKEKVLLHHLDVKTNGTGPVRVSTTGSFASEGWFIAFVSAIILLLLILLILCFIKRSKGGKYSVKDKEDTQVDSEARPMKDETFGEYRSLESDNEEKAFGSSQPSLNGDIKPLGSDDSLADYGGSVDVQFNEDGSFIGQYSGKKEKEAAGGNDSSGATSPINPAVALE

The target in the first test is Human L1CAM (purified protein) (human) (UniProt P32004). The test can be described thus: competitive ELISA; lower end of the range, tied to Ab612 by Table 9. Background: ELISA stands for enzyme-linked immunosorbent assay.
B1: the fold higher binding affinity than Ab417 is 2 to 10 fold.

The target is the same in the next test. The test can be described thus: competitive ELISA; upper end of the range, tied to Ab2C2 by Table 9.
For the molecule B2, the fold higher binding affinity than Ab417 is 2 to 10 fold.

The target is the same in another test. The test can be described thus: BLI, Octet RED384; antibody captured on AHC sensor, human L1CAM 50-0.78 nM as analyte.
B3 returned a Kd of 8.22 pM, a koff of 2.98e-06 s⁻¹ and a kon of 363000 M⁻¹ s⁻¹.
The molecule B4 had a Kd of 74.1 pM, a koff of 2.77e-05 s⁻¹ and a kon of 373000 M⁻¹ s⁻¹.
Molecule B2 returned a Kd of less than 1 pM, a koff of less than 1e-07 s⁻¹ and a kon of 344000 M⁻¹ s⁻¹.
Molecule B1 displayed a Kd of 105 pM, a koff of 3.28e-05 s⁻¹ and a kon of 313000 M⁻¹ s⁻¹.
Molecule B5 came in with a Kd of 96 pM, a koff of 3.94e-05 s⁻¹ and a kon of 411000 M⁻¹ s⁻¹.

Another test has as its target T1, Mouse L1CAM on B16F1 cells (mouse, UniProt P11627 20-1260).
T1 construct: whole, on cells; also called mouse L1CAM-positive cells
The test can be described thus: flow cytometry on B16F1 cells, antibody 10 ug/ml, FITC anti-human IgG Fc secondary. Here is the method: In order to examine whether the variant antibodies selectively bind to human and mouse L1CAM, flow cytometry was performed using various types of cells. In this regard, as a comparative antibody, the Ab417 antibody which binds to human L1 CAM and mouse L1 CAM was used.
CHO-DG44 (ATCC No. PTA-3356) cells that are known to express no human L1CAM were cultured and used as a negative control. Also, cells expressing human L1CAM, human ovarian carcinoma, SKOV3 (ATCC No. HTB-77) and human non-small cell lung carcinoma, NCI-H522 (AYCC NO. CRL-5810) were cultured. As cells expressing mouse L1CAM, a melanoma cell line, B16F1 (ATCC No. CRL-6323) was cultured. The cultured cells were harvested using a dissociation buffer or 0.05% trypsin (GIBCO) for CHO-DG44 cell, resuspended in 1% PBA solution, and placed on ice for 20 minutes. The cells were then added to round bottom polystyrene test tube (Falcon) at a density of 4×10⁵ cells per tube. The purified antibodies were diluted in PBA solution at a concentration of 10 ug/ml, and 100 μl was added to each tube and mixed well. The tubes were placed in 4° C. for 1 hour. The secondary antibody which specifically binds to the Fc region of human IgG and is covalently linked with FITC (Sigma) was added to each tube at a ratio of 1:2000. The plate was wrapped with foil to block light and allowed to react at 4° C. for 1 hour. A staining reagent PI (propidium iodide, Sigma) was added at a ratio of 1:200 to evaluate cell viability. After all reactions were completed, FITC and PI fluorescent signals were detected in the cells.
(A flow cytometer gives signals particle by particle.)
For B3, the binding result was “binds”.
Turning to B4, the binding result is given as “binds”.
On to B2, for which the binding result was “binds”.
Same read-out and setting: to B1 belongs “binds”; to B5, “binds”.

In a further test the target is Human L1CAM (purified protein) (human) (UniProt P32004). The test can be described thus: competitive ELISA; antibody pre-incubated with soluble human L1CAM, free antibody detected on coated human L1CAM.
As for B3, the Affinity (K) was found to be 60 pM.
For B4, the Affinity (K) stood at 60 pM.
Still for that read-out and setting: the value for B2 was 50 pM.
Molecule B1 yielded an Affinity (K) of 260 pM.
Molecule B5 had an Affinity (K) of 120 pM.

Another test shares this target. The test can be described thus: BLI (Octet RED384), antibody captured on AHC sensor, human L1CAM in solution; upper end told of the variants as a group, tied to Ab4H5 by the KD values of the same paragraph (0.2 nM against 8 pM). (BLI is a label-free optical method that tracks binding on a fibre tip over time.)
As for B3, the fold increased affinity compared to Ab417 came to 25 fold.

Broadly, the Kd is the free concentration of one partner at which half of the binding sites on the other are occupied at equilibrium, for simple one-to-one binding. A higher Kd goes with weaker binding. As usually defined, the koff is the rate constant with which the complex falls apart. As usually defined, the kon is the second-order rate constant of association. Low readings indicate slower complex formation, high ones faster complex formation.
